For one substance, stoichiometry N results are on record in publication PMC10138647.

This experiment concerns the target GST-cytPERK (cytosolic domain of PERK expressed as a GST fusion protein) (mouse). The experiment can be described thus: cross-linking; GST-cytPERK (1.3 µM) in solution, phosphate buffer pH 7.4, 2 mM MgCl2, 70 mM KCl, 1 mM DTT; 20 min at 27 °C with UDCA (50, 200, 1000 µM) or without, then 0.4 mM DSS for 30 min at 27 °C; quenched with Tris-HCl; 7% SDS-PAGE, blot with anti-PERK antibody; dimer relative to monomer by densitometry.

The stoichiometry N is the number of molecules, sites or subunits per partner or assembly. On to “GST-cytPERK (cytosolic domain of PERK expressed as a GST fusion protein) (domain or fragment)”, for which the stoichiometry N turned out to be 2.
